Assay results taken from patent US20210140973A1 (NITTO BOSEKI, published 2021).
Numbering of substitutions follows the chain as printed.

What was measured:
[1] = target: T1, human IgG4 purified from human serum (human); assay: SPR (Biacore), IgG4 immobilized on chip by amino coupling, antibody as analyte
T1 construct: also called IgG4 antigen; human IgG4-sensitized latex
Procedure: MaI4-08 and MaI4-09-produced antibodies, and, as a control, MaI4-05-produced antibody and 1 mg/mL of HP6025 were adjusted to 1 mg/mL. In addition, 1 mg/mL of IgG4 was prepared from the one purified from human serum. According to the protocol of Sumika Chemical Analysis Service, Ltd., IgG4 was immobilized onto a chip by an amino coupling method, and a sensorgram was obtained by a Biacore model. The obtained binding rate constant (kₐ), dissociation rate constant (kd), and dissociation constant (KD) were as shown in Table 11.

[2] = target: T2, GST-tagged peptide H8 (positions 111 to 327 of the human IgG4 heavy chain constant region) (human, UniProt P01861 111-325 = IgG part); assay: Western blot: E. coli lysate with the GST-tagged peptide, SDS-PAGE, PVDF membrane, POD-labelled antibody diluted 1000-fold, ECL
T2 construct: E. coli lysate on Western blot; not shown: GST tag (glutathione S-transferase) linked to the N terminal, expressed from vector pGEX-6P-1
Procedure: (§1) Based on the designed amino acid sequences, base sequences suitable for expressing protein in E. coli were designed according to the protocol of GenScript Corporation, thereby preparing vector pGEX-6P-1 (GE Healthcare Bio-Sciences Corp.) to which the respective base sequences are inserted. The prepared expression plasmid was introduced to E. coli BL 21 strain, thereby obtaining a transformant. The transformant was cultured by an ordinary method and a protein expression was induced by IPTG. After the cells were collected by centrifugation, the cells were dissolved with an ordinary lysis solution, and subjected to ultrasonication. 6 μL of an SDS sample buffer solution was added to 6 μL of the obtained lysate. The respective prepared samples were subjected to a heat treatment at 95° C. for 5 minutes. 10 μL of the E. coli disrupted sample was added to each well of 5 to 20% electrophoresis gel (Atto Corportation) to which an SDS electrophoresis buffer solution was added. Similarly, a molecular weight standard (Bio-Rad Laboratories, Inc.) was added to each well and electrophoresed. After completing the electrophoresis, the electrophoresis gel was transcribed to a PVDF membrane (Millipore Corporation) with a transfer buffer solution. The PVDF membrane was immersed in a membrane blocking buffer solution, and then shaking was carried out at room temperature for 30 minutes. Amino groups of MaI4-08, MaI4-09, and MaI4-05-produced antibodies were subjected to a POD labeling treatment with a POD labeling kit (Dojindo Molecular Technologies, Inc.). The obtained labeled antibodies each were diluted 1000-fold by PBST. After the PVDF membrane was cleaned with PBST, the antibody solutions prepared each were added to the PVDF membrane, and then the reaction was performed at room temperature for 1 hour. After the PVDF membrane was cleaned by PBST, a signal was detected with ECL Prime Western Blotting Detection Reagents (GE Healthcare) with Image Quant Las4000.

[3] = target: T3, GST-tagged peptide H10 (positions 221 to 327 of the human IgG4 heavy chain constant region, CH3 region) (human, UniProt P01861 221-325 = IgG part); assay: as above
T3 construct: E. coli lysate on Western blot; not shown: GST tag (glutathione S-transferase) linked to the N terminal, expressed from vector pGEX-6P-1
Procedure: as §1

[4] = target: T4, GST-tagged peptide H32 (H10 with lysine for arginine at position 289) (human, UniProt P01861 221-325 = IgG part); assay: as above
T4 construct: not shown: GST tag (glutathione S-transferase) linked to the N terminal, expressed from vector pGEX-6P-1
T4 chain: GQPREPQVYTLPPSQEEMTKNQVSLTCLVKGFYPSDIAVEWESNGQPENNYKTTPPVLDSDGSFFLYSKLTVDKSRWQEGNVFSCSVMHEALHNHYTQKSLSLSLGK
Procedure: as §1

[5] = target: T5, GST-tagged peptide H35 (H10 with Q235R, R289K, E299Q and L325P) (human, UniProt P0DOX5 343-449 = IgG part); assay: as above
T5 construct: not shown: N-terminal GST tag (from vector pGEX-6P-1) and any vector linker
T5 chain: T4 chain with Q15R, E79Q, L105P
Procedure: as §1

[6] = target: T6, Myeloma human IgG4 (EMD Millipore) (human); assay: latex agglutination inhibition; 3000 mg/dL myeloma protein as free sample against IgG4-sensitized latex, read on the IgG4 calibration curve
T6 construct: Bought myeloma protein
Procedure: (§2) In a case where the MaI4-08-produced antibody or the MaI4-09-produced antibody was used as an anti-human IgG4 mouse monoclonal antibody in the first reagent, specificity to human IgG4 was evaluated. As a sample, Myeloma human IgG4 solution (EMD Millipore) adjusted to 3000 mg/dL was used. In addition, as control samples, Myeloma human IgG1 solution (EMD Millipore), Myeloma human IgG2 solution (EMD Millipore), and Myeloma human IgG3 solution (Sigma-Aldrich Co. LLC) prepared similarly to the above were used. A saline solution was used as a blank sample. For the measurement of human IgG4 concentrations, 120 μL of the first reagent and 120 μL of the second reagent were reacted with 3 μL of a sample using Hitachi type 7180 automatic analyzer, and change amount of absorbance in the range of photometric points of 18 to 28 (corresponding to 1 minute to 4 minutes after addition of R2) was measured at a main wavelength of 570 nm and a complementary wavelength of 800 nm by a two-point end method (n=2). A calibration curve was created from the results of Table 8 and the human IgG4 concentration in a sample was calculated therefrom.

[7] = target: T7, Myeloma human IgG1 (EMD Millipore) (human); assay: as above
T7 construct: Bought myeloma protein
Procedure: as §2

[8] = target: T8, Myeloma human IgG2 (EMD Millipore) (human); assay: as above
T8 construct: Bought myeloma protein
Procedure: as §2

[9] = target: T9, Myeloma human IgG3 (Sigma-Aldrich Co. LLC) (human); assay: as above
T9 construct: Bought myeloma protein
Procedure: as §2

T1 sequence (constant, as listed by the source limits assumed): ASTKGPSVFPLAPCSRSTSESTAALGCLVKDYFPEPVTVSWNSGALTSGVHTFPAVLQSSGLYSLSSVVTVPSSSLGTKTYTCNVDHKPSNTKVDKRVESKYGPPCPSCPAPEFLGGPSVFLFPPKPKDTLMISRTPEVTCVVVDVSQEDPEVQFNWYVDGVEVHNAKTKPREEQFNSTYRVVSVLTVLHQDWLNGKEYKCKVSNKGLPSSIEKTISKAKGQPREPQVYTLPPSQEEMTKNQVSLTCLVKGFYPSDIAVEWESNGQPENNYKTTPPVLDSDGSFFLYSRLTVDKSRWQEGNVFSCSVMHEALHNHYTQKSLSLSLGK
T2 sequence (P01861 other isoform, or with tags, fused parts or gaps): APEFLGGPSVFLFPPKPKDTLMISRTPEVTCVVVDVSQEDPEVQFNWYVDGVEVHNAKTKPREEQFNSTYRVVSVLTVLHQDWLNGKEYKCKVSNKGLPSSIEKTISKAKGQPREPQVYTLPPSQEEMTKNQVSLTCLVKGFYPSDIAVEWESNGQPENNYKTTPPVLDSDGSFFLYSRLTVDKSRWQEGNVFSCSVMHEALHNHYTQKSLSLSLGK
T7 sequence (constant, as listed by the source limits assumed): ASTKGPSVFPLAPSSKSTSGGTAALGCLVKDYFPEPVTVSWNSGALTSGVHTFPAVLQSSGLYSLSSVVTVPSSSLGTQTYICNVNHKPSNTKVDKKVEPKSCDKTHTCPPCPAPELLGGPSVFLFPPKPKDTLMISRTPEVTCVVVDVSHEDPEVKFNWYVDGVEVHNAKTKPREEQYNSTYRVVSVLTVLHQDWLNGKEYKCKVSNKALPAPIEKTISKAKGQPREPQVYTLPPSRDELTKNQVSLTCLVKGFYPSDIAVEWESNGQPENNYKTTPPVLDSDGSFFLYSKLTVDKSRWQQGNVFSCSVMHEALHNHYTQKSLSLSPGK
T8 sequence (constant, as listed by the source limits assumed): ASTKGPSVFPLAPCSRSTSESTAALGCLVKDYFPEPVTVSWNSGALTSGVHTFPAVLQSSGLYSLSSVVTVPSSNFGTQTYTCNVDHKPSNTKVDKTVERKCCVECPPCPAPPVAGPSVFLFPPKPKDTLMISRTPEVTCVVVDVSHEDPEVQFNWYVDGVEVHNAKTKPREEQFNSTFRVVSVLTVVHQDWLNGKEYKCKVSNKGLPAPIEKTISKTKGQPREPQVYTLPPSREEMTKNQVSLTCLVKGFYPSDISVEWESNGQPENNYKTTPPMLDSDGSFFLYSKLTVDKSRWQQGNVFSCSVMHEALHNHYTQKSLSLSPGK
T9 sequence (constant, as listed by the source limits assumed): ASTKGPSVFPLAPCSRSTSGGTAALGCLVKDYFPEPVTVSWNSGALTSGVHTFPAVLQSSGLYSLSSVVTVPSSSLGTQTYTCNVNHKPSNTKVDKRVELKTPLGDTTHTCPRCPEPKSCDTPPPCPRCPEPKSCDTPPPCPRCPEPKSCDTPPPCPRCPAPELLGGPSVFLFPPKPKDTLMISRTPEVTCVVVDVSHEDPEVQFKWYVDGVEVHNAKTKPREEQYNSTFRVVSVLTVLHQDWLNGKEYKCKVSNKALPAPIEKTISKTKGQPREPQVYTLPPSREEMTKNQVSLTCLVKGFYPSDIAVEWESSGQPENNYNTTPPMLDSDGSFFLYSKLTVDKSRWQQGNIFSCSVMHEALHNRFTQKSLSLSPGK

B1: MaI4-08-produced antibody (antibody, IgG1, V domains shown)
VH: EVQLQQSGPELVKPGTSVKMSCKASGYIFTSYILHWVKQKPGQGLEWIAYINPYNDGTKYKEKFKGKGTLTSDKSSSTAYMELSSLTSEDSAVYYCARSGGGYGNYAWFAYWGPGTLVTVST
VL: DIQMTQSPSSLSASLGERVSLTCRASQDIGSSLNWLQQEPDGTIKRLIYATSSLDSGVPKRFSGSRSGSDYSLTISSLESEDFVDYYCLQYASYPPTFGAGTKLELK
notes: Purified on protein G from hybridoma culture supernatant; POD-labelled for the Western blots
B1 was tested, and the Kd [1] was 0.406 nM, the koff [1] was 0.000223 s⁻¹ and the kon [1] was 549000 M⁻¹ s⁻¹. B1: binds [2]; binds [3]; binds [4]. The binding result [5] was “no binding”, the “Measured value (apparent human IgG4 concentration)” value (from here on “Measured value”) [6] was 1090 mg/dL and the “Measured value” value [7] was 10.1 mg/dL. The “Measured value” value [8] was 12.8 mg/dL and the “Measured value” value [9] was 4.1 mg/dL.
